{"source": "patent US20150203575A1", "about": "(Genentech, published 2015)", "binders": {"B1": {"name": "hPILRαR126A-Fc (Fc fusion)", "chain": "QPSGSTGSGPSYLYGVTQPKHLSASMGGSVEIPFSFYYPWELATAPDVRISWRRGHFHRQSFYSTRPPSIHKDYVNRLFLNWTEGQKSGFLRISNLQKQDQSVYFCAVELDTRSSGRQQWQSIEGTKLSITQAVTTTTQRPSSMTTTWRLSSTTTTTGLRVTQGKRRSDSWHISLETA", "notes": "Arg mutant of hPILRα-Fc; also called hPILRα R126-Fc; mutant hPILRα; not shown: Fc of mouse IgG2a (PILRα-mIgG2a, called PILRα-Fc)"}, "B2": {"name": "mPILRβ (receptor)", "chain": "not shown", "notes": "also called Mouse PILR-beta"}}, "key": {"[1]": {"biological_target": "T1, CLEC4G expressed on cells (human, UniProt Q6UXB4 1-293)", "T1 construct": "Clone of the Origene human cDNA library; also called C type lectin superfamily 4 member G", "T1 sequence": "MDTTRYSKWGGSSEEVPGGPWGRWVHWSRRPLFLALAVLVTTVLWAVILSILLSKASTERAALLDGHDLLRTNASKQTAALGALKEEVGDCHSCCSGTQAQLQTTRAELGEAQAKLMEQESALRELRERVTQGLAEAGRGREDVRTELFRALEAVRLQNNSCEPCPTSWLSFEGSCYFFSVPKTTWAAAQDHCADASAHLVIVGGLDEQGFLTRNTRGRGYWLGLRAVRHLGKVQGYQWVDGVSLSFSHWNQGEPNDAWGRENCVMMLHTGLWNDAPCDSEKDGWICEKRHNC", "experiment": "flow cytometry, transfected 293T cells"}, "[2]": {"biological_target": "T2, LRRTM4 expressed on cells (human, UniProt Q86VH4 31-590)", "T2 construct": "Clone of the Origene human cDNA library; also called Leucine rich repeat transmembrane neuronal 4", "T2 sequence (Q86VH4 31-590 limits assumed)": "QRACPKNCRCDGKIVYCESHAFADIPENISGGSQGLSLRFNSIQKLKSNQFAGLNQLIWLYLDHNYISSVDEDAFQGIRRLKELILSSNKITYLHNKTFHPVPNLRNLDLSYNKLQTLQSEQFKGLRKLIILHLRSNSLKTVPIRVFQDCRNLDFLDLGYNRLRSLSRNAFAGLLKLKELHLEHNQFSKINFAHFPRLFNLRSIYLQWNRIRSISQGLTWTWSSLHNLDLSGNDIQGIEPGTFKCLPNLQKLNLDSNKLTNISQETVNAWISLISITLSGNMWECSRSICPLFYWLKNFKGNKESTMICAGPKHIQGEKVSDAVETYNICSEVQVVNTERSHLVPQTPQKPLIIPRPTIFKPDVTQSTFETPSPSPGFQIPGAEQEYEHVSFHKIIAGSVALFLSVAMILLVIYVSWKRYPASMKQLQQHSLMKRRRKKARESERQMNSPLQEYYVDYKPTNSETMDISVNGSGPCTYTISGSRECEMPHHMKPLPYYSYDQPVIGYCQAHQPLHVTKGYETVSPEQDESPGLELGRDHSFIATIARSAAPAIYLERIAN", "experiment": "flow cytometry, transfected 293T cells"}, "[3]": {"biological_target": "T3, mouse CD99 expressed on 293T cells (mouse, UniProt Q8VCN6 29-175, sialylated O-glycans at Thr-45 and Thr-50 (cited as relevant for PILRα recognition))", "T3 construct": "whole, on cells; also called mCD99; mCD99 transfectants", "T3 sequence (looked up)": "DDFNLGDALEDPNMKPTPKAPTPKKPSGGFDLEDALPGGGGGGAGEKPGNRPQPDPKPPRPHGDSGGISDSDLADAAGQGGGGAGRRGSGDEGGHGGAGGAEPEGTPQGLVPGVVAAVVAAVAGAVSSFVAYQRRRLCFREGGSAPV", "experiment": "flow cytometry, transfected 293T cells"}, "[4]": {"biological_target": "T4, human NPDC1 expressed on cells (human, UniProt Q9NQX5 35-325)", "T4 construct": "also called hNPDC1; hNPCD1", "T4 sequence": "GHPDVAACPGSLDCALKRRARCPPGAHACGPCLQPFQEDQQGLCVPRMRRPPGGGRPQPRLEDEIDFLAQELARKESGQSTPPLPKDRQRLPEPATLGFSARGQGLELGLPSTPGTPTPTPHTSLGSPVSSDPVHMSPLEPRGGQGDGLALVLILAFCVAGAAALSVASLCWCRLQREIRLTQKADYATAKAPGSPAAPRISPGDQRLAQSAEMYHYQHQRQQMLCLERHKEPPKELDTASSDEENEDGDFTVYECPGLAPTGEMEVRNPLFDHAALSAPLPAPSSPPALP", "experiment": "flow cytometry, transfected 293T cells"}, "BR3 expressed on cells [5]": {"biological_target": "T5, BR3 expressed on cells (human, UniProt Q96RJ3 1-184)", "T5 construct": "Clone of the Origene human cDNA library", "T5 sequence": "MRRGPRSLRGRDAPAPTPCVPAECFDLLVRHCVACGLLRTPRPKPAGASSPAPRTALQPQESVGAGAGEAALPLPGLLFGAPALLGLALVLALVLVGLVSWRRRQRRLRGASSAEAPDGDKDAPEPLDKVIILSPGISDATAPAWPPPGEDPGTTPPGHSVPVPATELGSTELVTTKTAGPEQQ", "experiment": "flow cytometry, transfected 293T cells"}, "[6]": {"biological_target": "T6, IL-2Ra expressed on cells (human, UniProt P01589 22-272)", "T6 construct": "Clone of the Origene human cDNA library; also called Interleukin 2 receptor alpha", "T6 sequence": "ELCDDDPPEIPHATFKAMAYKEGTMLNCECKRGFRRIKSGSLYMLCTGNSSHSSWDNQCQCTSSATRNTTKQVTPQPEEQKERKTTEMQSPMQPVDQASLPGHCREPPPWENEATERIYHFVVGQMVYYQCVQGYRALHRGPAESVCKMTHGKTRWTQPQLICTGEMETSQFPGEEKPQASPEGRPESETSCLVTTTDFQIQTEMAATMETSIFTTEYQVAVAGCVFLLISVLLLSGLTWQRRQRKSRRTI", "experiment": "flow cytometry, transfected 293T cells"}, "PSS8 expressed on cells [7]": {"biological_target": "T7, PSS8 expressed on cells (human, UniProt Q16651 30-343)", "T7 construct": "Clone of the Origene human cDNA library; also called Protease serine 8; prostasin", "T7 sequence (Q16651 30-343 limits assumed)": "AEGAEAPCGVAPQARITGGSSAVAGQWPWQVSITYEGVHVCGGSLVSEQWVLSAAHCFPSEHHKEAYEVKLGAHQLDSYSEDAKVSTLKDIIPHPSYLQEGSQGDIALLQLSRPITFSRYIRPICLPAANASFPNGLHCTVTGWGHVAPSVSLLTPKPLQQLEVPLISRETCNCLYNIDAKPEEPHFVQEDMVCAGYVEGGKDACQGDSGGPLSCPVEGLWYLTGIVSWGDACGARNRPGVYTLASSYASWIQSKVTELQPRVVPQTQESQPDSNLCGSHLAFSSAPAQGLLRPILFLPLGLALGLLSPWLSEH", "experiment": "flow cytometry, transfected 293T cells"}, "MAG expressed on cells [8]": {"biological_target": "T8, MAG expressed on cells (human, UniProt P20916 20-626)", "T8 construct": "Clone of the Origene human cDNA library; also called Myelin associated glycoprotein; SIGLEC4A", "T8 sequence": "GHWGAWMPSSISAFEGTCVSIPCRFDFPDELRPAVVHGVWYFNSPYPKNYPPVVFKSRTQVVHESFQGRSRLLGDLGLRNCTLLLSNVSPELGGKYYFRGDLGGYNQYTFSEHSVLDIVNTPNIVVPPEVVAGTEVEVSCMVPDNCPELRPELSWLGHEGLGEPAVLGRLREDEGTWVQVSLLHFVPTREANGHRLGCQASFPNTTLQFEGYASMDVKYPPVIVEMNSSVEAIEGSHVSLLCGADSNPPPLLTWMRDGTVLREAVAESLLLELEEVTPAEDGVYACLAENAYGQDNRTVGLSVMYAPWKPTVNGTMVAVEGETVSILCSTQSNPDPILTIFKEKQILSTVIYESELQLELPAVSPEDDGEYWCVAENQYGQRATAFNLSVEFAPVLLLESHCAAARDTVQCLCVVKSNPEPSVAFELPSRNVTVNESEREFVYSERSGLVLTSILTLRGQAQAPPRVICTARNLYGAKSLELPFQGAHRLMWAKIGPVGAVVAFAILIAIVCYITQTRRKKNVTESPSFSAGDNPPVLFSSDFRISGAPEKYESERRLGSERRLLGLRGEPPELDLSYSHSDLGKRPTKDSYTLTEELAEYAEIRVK", "experiment": "flow cytometry, transfected 293T cells, 2 µg/ml"}, "[9]": {"biological_target": "T2, LRRTM4 expressed on cells", "experiment": "flow cytometry, transfected 293T cells, 2 µg/ml"}, "MAG expressed on cells [10]": {"biological_target": "T8, MAG expressed on cells", "experiment": "flow cytometry, transfected 293T cells, 50 µg/ml"}, "BR3 expressed on cells [11]": {"biological_target": "T5, BR3 expressed on cells", "experiment": "flow cytometry, transfected 293T cells, 2 µg/ml"}, "PSS8 expressed on cells [12]": {"biological_target": "T7, PSS8 expressed on cells", "experiment": "flow cytometry, transfected 293T cells, 2 µg/ml"}, "mCD99-Fc": {"biological_target": "T9, mCD99-Fc (mouse, UniProt Q8VCN6 29-137, limits assumed, three O-glycans NeuAc1-2Hex1HexNAc1)", "T9 construct": "also called mouse CD99-Fc; mCD99 (SPR analyte); not shown: Fc", "T9 sequence (looked up)": "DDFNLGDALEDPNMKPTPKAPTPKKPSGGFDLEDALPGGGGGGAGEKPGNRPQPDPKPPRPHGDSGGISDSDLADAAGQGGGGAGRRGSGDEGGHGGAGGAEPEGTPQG", "experiment": "SPR, hPILRα R126A-Fc immobilized, response difference"}, "hCOLEC12-his": {"biological_target": "T10, hCOLEC12-his (human, UniProt Q5KU26 59-742, sialylated O-glycans and N-glycans)", "T10 construct": "Whole entry named; also called human COLEC12-his; hCOLEC12 (SPR); not shown: his tag", "T10 sequence (Q5KU26 59-742 S522P/G606S limits assumed)": "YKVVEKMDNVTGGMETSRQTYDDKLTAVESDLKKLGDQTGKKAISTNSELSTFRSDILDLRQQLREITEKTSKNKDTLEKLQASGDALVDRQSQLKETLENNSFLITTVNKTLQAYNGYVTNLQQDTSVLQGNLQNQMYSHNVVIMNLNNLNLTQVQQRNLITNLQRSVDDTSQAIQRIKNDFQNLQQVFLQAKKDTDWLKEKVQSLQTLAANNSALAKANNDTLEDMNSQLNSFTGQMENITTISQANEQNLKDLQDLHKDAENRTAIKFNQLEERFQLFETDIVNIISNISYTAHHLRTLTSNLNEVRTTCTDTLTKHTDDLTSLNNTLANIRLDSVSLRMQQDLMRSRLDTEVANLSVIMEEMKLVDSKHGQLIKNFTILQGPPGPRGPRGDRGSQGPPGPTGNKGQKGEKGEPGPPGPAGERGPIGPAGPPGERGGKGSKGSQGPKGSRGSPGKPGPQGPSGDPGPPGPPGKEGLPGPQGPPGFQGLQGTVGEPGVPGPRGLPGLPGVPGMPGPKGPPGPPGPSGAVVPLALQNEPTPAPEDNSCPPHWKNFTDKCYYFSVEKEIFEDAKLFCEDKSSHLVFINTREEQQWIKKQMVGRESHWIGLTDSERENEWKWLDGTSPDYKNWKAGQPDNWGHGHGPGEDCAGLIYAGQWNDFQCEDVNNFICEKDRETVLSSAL", "experiment": "SPR, hPILRα R126A-Fc immobilized, response difference"}, "[13]": {"biological_target": "T11, human COLEC12 expressed on cells (human, UniProt Q5KU26 1-742)", "T11 construct": "also called hCOLEC12; C-terminal his tagged hCOLEC12", "T11 sequence (Q5KU26 whole entry S522P/G606S)": "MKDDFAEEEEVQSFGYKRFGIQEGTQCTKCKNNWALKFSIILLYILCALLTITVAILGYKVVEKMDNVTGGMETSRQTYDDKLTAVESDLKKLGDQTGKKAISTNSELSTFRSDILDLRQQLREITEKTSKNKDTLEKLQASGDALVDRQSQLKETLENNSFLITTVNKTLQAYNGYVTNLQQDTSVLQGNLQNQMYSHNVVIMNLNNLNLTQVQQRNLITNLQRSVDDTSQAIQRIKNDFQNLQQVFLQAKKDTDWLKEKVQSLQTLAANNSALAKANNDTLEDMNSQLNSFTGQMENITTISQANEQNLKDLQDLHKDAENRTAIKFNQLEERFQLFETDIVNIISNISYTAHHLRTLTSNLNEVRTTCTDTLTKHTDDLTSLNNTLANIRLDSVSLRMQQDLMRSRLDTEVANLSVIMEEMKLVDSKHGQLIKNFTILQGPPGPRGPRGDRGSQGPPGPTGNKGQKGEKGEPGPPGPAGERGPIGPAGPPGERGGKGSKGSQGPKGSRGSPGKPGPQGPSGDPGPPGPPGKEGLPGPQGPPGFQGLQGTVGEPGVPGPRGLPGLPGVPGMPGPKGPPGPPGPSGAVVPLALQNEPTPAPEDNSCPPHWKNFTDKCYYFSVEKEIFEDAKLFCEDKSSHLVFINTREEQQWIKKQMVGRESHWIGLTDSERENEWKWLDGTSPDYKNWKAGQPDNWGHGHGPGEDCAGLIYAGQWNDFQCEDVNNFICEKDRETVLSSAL", "experiment": "flow cytometry, transfected 293T cells, ligand-expressing cells gated"}, "[14]": {"biological_target": "T12, HSV1 glycoprotein B expressed on 293T cells (herpes simplex virus type 1, UniProt P10211 31-904)", "T12 construct": "whole, on cells; also called HSV-1 gB; HSV1 gB", "experiment": "flow cytometry, transfected 293T cells, ligand-expressing cells gated"}, "[15]": {"biological_target": "T11, human COLEC12 expressed on cells", "experiment": "flow cytometry, transfected 293T cells"}, "MAG expressed on cells [16]": {"biological_target": "T8, MAG expressed on cells", "experiment": "flow cytometry, transfected 293T cells"}, "[17]": {"biological_target": "T2, LRRTM4 expressed on cells", "experiment": "flow cytometry, transfected 293T cells", "remark": "listed apart in the source"}, "[18]": {"biological_target": "T6, IL-2Ra expressed on cells", "experiment": "flow cytometry, transfected 293T cells", "remark": "listed apart in the source"}, "PSS8 expressed on cells [19]": {"biological_target": "T7, PSS8 expressed on cells", "experiment": "flow cytometry, transfected 293T cells", "remark": "listed apart in the source"}, "[20]": {"biological_target": "T1, CLEC4G expressed on cells", "experiment": "flow cytometry, transfected 293T cells, 50 µg/ml"}, "[21]": {"biological_target": "T13, FceRII expressed on cells (human, UniProt P06734 1-321)", "T13 construct": "Clone of the Origene human cDNA library; also called FcRII", "T13 sequence": "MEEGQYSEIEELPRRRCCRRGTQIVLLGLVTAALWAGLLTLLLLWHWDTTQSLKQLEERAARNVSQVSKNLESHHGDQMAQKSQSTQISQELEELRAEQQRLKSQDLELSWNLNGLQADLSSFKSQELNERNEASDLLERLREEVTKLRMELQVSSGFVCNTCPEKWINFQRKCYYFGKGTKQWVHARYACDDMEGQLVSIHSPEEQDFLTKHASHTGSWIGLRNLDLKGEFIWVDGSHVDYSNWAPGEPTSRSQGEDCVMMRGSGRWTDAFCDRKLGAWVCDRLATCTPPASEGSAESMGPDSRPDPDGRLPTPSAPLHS", "experiment": "flow cytometry, transfected 293T cells, 50 µg/ml"}, "MAG expressed on cells [22]": {"biological_target": "T8, MAG expressed on cells", "experiment": "flow cytometry, transfected 293T cells, 50 µg/ml", "remark": "listed apart in the source"}, "[23]": {"biological_target": "T13, FceRII expressed on cells", "experiment": "flow cytometry, transfected 293T cells, 50 µg/ml", "remark": "listed apart in the source"}, "BR3 expressed on cells [24]": {"biological_target": "T5, BR3 expressed on cells", "experiment": "flow cytometry, transfected 293T cells, 50 µg/ml"}}, "note": "Read-outs that look alike come from different tables or passages of the source.", "data": [{"binder": "B1", "values": [{"measurement": "binding result", "setting": "[1]", "result": "no binding (tested: 50 µg/ml)"}, {"measurement": "binding result", "setting": "[2]", "result": "no binding (tested: 50 µg/ml)"}, {"measurement": "binding result", "setting": "[3]", "result": "no binding (tested: 50 µg/ml)"}, {"measurement": "binding result", "setting": "[4]", "result": "no binding (tested: 50 µg/ml)"}, {"measurement": "binding result", "setting": "BR3 expressed on cells [5]", "result": "no binding (tested: 50 µg/ml)"}, {"measurement": "binding result", "setting": "[6]", "result": "no binding (tested: 50 µg/ml)"}, {"measurement": "binding result", "setting": "PSS8 expressed on cells [7]", "result": "no binding (tested: 50 µg/ml)"}, {"measurement": "% cells in lower right quadrant", "setting": "MAG expressed on cells [8]", "result": 0.17, "unit": "%"}, {"measurement": "% cells in lower right quadrant", "setting": "[9]", "result": 0.11, "unit": "%"}, {"measurement": "% cells in lower right quadrant", "setting": "MAG expressed on cells [10]", "result": 12.5, "unit": "%"}, {"measurement": "% cells in lower right quadrant", "setting": "BR3 expressed on cells [11]", "result": 0.47, "unit": "%"}, {"measurement": "% cells in lower right quadrant", "setting": "PSS8 expressed on cells [12]", "result": 0.012, "unit": "%"}, {"measurement": "binding result", "setting": "mCD99-Fc", "result": "no binding (tested: 1 µM)"}, {"measurement": "binding result", "setting": "hCOLEC12-his", "result": "no binding (tested: 1 µM)"}, {"measurement": "binding result", "setting": "[13]", "result": "no binding"}, {"measurement": "binding result", "setting": "[14]", "result": "no binding"}]}, {"binder": "B2", "values": [{"measurement": "binding result", "setting": "[15]", "result": "no binding (tested: 50 µg/ml)"}, {"measurement": "binding result", "setting": "MAG expressed on cells [16]", "result": "no binding (tested: 50 µg/ml)"}, {"measurement": "binding result", "setting": "[17]", "result": "no binding (tested: 50 µg/ml)"}, {"measurement": "binding result", "setting": "[18]", "result": "no binding (tested: 50 µg/ml)"}, {"measurement": "binding result", "setting": "PSS8 expressed on cells [19]", "result": "no binding (tested: 50 µg/ml)"}, {"measurement": "% cells in lower right quadrant", "setting": "[20]", "result": 27.4, "unit": "%"}, {"measurement": "% cells in lower right quadrant", "setting": "[21]", "result": 3.98, "unit": "%"}, {"measurement": "% cells in lower right quadrant", "setting": "MAG expressed on cells [22]", "result": 0.083, "unit": "%"}, {"measurement": "% cells in lower right quadrant", "setting": "[23]", "result": 3.98, "unit": "%"}, {"measurement": "% cells in lower right quadrant", "setting": "BR3 expressed on cells [24]", "result": 1.85, "unit": "%"}]}]}
